From US20250352667A1 come the findings set out here.

Assay [1] concerns the target KEAP1 (wild-type full-length), His-tagged (human) (UniProt Q14145). In words: AlphaScreen; 19.2 nM FLAG-NRF2, 150 nM His-KEAP1; signal against NRF2 only; control for I86V.
Assay [2] has the same target. The experiment in a line: AlphaScreen; 9.6 nM FLAG-NRF2, 150 nM His-KEAP1; Rep 1; control for I28V. Background: Bead proximity is the source of the signal in Alpha formats.
The target is the same in assay [3]. In words: AlphaScreen; 153.6 nM FLAG-NRF2, 150 nM His-KEAP1; Rep 2; control for I28V.
Assay [4] shares this target. The experiment in a line: AlphaScreen; 9.6 nM FLAG-NRF2, 150 nM His-KEAP1; Rep 2; control for I86V.
For assay [5] the target is unchanged. The experiment in a line: AlphaScreen; NRF2 wt isoform 1 19.2 nM, KEAP1 150 nM; signal against NRF2-only control; control for Q75R.
Assay [6] has the same target. In words: AlphaScreen; 614.4 nM FLAG-NRF2, 150 nM His-KEAP1; signal against NRF2 only; control for I86V.
For assay [7] the target is unchanged. In words: AlphaScreen; FLAG-NRF2 wt isoform 1 614.4 nM, His-KEAP1 150 nM; Rep 1; positive control for Q75R.
For assay [8] the target is unchanged. The experiment in a line: AlphaScreen; NRF2 wt isoform 1 9.6 nM, KEAP1 150 nM; set as the 100 % reference for I86V.
The target is the same in assay [9]. In words: AlphaScreen; NRF2 wt isoform 1 9.6 nM, KEAP1 150 nM; signal against NRF2-only control; control for Q75R.
Assay [10] shares this target. The experiment in a line: AlphaScreen; NRF2 wt isoform 1 38.4 nM, KEAP1 150 nM; signal against NRF2-only control; control for Q75R.
The target is the same in assay [11]. In words: AlphaScreen; 9.6 nM FLAG-NRF2, 150 nM His-KEAP1; Repeat 1 (same value as in Table 26).
Assay [12] has the same target. In words: AlphaScreen; 1228.8 nM FLAG-NRF2, 150 nM His-KEAP1; Rep 1; control for I28V.
Assay [13] shares this target. The experiment in a line: AlphaScreen; 307.2 nM FLAG-NRF2, 150 nM His-KEAP1; Rep 2.
Assay [14] has the same target. The experiment in a line: AlphaScreen; 9.6 nM FLAG-NRF2, 150 nM His-KEAP1; Rep 2.
For assay [15] the target is unchanged. In words: AlphaScreen; 1228.8 nM FLAG-NRF2, 150 nM His-KEAP1; signal against NRF2 only.
For assay [16] the target is unchanged. In words: AlphaScreen; 614.4 nM FLAG-NRF2, 150 nM His-KEAP1; Rep 2.
Assay [17] shares this target. In words: AlphaScreen; 2.4 nM FLAG-NRF2, 150 nM His-KEAP1; Rep 2.
Assay [18] has the same target. The experiment in a line: AlphaScreen; 38.4 nM FLAG-NRF2, 150 nM His-KEAP1; against wild-type NRF2 isoform 1 = 100%.
Assay [19] shares this target. The experiment in a line: AlphaScreen; NRF2 Q75R 153.6 nM, KEAP1 150 nM; signal against NRF2-only control.
For assay [20] the target is unchanged. In words: AlphaScreen; FLAG-NRF2 Q75R 19.2 nM, His-KEAP1 150 nM; Repeat 2.
For assay [21] the target is unchanged. The experiment in a line: AlphaScreen; FLAG-NRF2 Q75R 9.6 nM, His-KEAP1 150 nM; Rep 1.
The target is the same in assay [22]. The experiment in a line: AlphaScreen; FLAG-NRF2 Q75R 19.2 nM, His-KEAP1 150 nM; Rep 1.
Assay [23] shares this target. The experiment in a line: AlphaScreen; NRF2 I86V 153.6 nM, KEAP1 150 nM; signal against NRF2-only control.
For assay [24] the target is unchanged. In words: AlphaScreen; FLAG-NRF2 I86V 19.2 nM, His-KEAP1 150 nM; Rep 2.
Assay [25] has the same target. In words: AlphaScreen; FLAG-NRF2 I86V 4.8 nM, His-KEAP1 150 nM; Rep 1.
Assay [26] has the same target. The experiment in a line: AlphaScreen; FLAG-NRF2 I86V 1228.8 nM, His-KEAP1 150 nM; Rep 1.
For assay [27] the target is unchanged. The experiment in a line: AlphaScreen; FLAG-NRF2 I86V 2.4 nM, His-KEAP1 150 nM; Rep 3.

Residue numbers refer to the chain shown, from its start. Numbers in names are those of the source.

Chain of KEAP1 (wild-type full-length), His-tagged (human) (Q14145 2-624 limits assumed): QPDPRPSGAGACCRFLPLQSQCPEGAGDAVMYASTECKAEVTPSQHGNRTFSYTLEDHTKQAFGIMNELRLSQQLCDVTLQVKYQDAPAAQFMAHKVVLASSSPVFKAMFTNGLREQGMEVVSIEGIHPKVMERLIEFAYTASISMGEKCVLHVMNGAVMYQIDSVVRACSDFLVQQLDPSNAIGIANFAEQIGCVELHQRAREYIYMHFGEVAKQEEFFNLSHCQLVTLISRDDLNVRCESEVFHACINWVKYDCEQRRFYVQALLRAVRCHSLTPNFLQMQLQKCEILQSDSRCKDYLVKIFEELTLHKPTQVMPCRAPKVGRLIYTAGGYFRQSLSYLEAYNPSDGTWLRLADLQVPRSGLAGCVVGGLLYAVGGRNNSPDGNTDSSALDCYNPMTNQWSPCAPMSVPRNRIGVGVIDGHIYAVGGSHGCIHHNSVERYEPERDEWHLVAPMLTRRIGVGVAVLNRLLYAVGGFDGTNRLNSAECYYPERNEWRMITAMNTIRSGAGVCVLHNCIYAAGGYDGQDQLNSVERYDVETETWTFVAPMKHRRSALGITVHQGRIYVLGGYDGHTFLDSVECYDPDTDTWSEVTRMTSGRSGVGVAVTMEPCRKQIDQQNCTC

B1: NRF2 isoform 1 (wild-type full-length), FLAG-tagged (protein)
chain: MMDLELPPPGLPSQQDMDLIDILWRQDIDLGVSREVFDFSQRRKEYELEKQKKLEKERQEQLQKEQEKAFFAQLQLDEETGEFLPIQPAQHIQSETSGSANYSQVAHIPKSDALYFDDCMQLLAQTFPFVDDNEVSSATFQSLVPDIPGHIESPVFIATNQAQSPETSVAQVAPVDLDGMQQDIEQVWEELLSIPELQCLNIENDKLVETTMVPSPEAKLTEVDNYHFYSSIPSMEKEVGNCSPHFLNAFEDSFSSILSTEDPNQLTVNSLNSDATVNTDFGDEFYSAFIAEPSISNSMPSPATLSHSLSELLNGPIDVSDLSLCKAFNQNHPESTAEFNDSDSGISLNTSPSVASPEHSVESSSYGDTLLGLSDSEVEELDSAPGSVKQNGPKTPVHSSGDMVQPLSPSQGQSTHVHDAQCENTPEKELPVSPGHRKTPFTKDKHSSRLEAHLTRDELRAKALHIPFPVEKIINLPVVDFNEMMSKEQFNEAQLALIRDIRRRGKNKVAAQNCRKRKLENIVELEQDLDHLKDEKEKLLKEKGENDKSLHLLKKQLSTLYLEVFSMLRDEDGKPYSPSEYSLQQTRDGNVFLVPKSKKPDVKKN
Regarding B1, the S/N amounted to 4.1 in assay [1]; 3.4 in assay [5]; 1.1 in [6]; 3 in assay [9]; 2.8 in [10]. Also, the A-counts in [2] came to 1590 A-counts; in assay [3], 1880 A-counts; in assay [4] it was 2720 A-counts; in assay [11], 1590 A-counts; in assay [12], 1450 A-counts. Moreover, the A-counts (NRF2 plus KEAP1) in assay [7] stood at 1650 A-counts. Moreover, in assay [8], the Binding Percentage is 100%.

B2: NRF2 isoform 1 (I28V full-length), FLAG-tagged (protein)
chain: B1 chain with I28V
With B2, the A-counts in assay [13] stood at 1260 A-counts; in assay [14], 1560 A-counts; in assay [16] it was 1210 A-counts; in [17] it was 696 A-counts. This molecule also gave a S/N in [15] of 0.9. This molecule also came in with a Binding Percentage (%) in assay [18] of 63.5%.

B3: NRF2 isoform 1 (Q75R full-length), FLAG-tagged (protein)
chain: B1 chain with Q75R
On to B3, for which the S/N in [19] stood at 1.5. Also, the A-counts (NRF2 plus KEAP1) in [20] was found to be 1280 A-counts; in [21], 1180 A-counts; in assay [22] it was 1300 A-counts.

B4: NRF2 isoform 1 (I86V full-length), FLAG-tagged (protein)
chain: B1 chain with I86V
Turning to B4, the S/N in assay [23] worked out at 2. In addition, the A-counts (NRF2 plus KEAP1) in [24] came to 3160 A-counts; in [25] it was 2170 A-counts; in assay [26], 1750 A-counts; in assay [27], 1680 A-counts.
